How the values were obtained:
[1] = molecular target: HapRV2G (wild type functional HapR, glycine at position 39), N-terminal 6X His fusion (Vibrio cholerae); assay: SEC
[2] = molecular target: HapRV2G-E117K (HapR natural variant with lysine at position 117 in the dimerization domain), N-terminal 6X His fusion (Vibrio cholerae); assay: SEC

Row | Substance | stoichiometry N [1] | stoichiometry N [2]
1 | HapRV2G (wild type functional HapR, glycine at position 39), N-terminal 6X His fusion (natural protein) | 2 | –
2 | HapRV2G-E117K (HapR natural variant with lysine at position 117 in the dimerization domain), N-terminal 6X His fusion (natural protein) | – | 2

Reference: PMC3796514
